B1: NOTCH3 EGF1–5 wildtype (truncated human Notch3 extracellular domain, first five EGF-like repeats, amino acids 1–234) (domain or fragment)
chain: not shown
notes: signal peptide in the construct; human NOTCH3 extracellular domain, first five EGF-like repeats, amino acids 1–234; codon-optimized construct derived from Duering et al., 2011; also called N3 EGF1–5 WT; WT N3 EGF1–5
B2: NOTCH3 EGF1–5 R133C (CADASIL-mutated truncated human Notch3 extracellular domain, amino acids 1–234) (domain or fragment)
chain: not shown
notes: signal peptide in the construct; human NOTCH3 extracellular domain, first five EGF-like repeats, amino acids 1–234, with the CADASIL mutation R133C (in EGF3); codon-optimized construct derived from Duering et al., 2011; R133C is a common CADASIL mutation found in patients; also called N3 EGF1–5 R133C; R133C mutant
B3: Recombinant human Bri2 BRICHOS domain (domain or fragment, UniProt Q9Y287 137-231, looked up)
chain: FADSDPANIVHDFNKKLTAYLDLNLDKCYVIPLNTSIVMPPRNLLELLINIKAGTYLPQSYLIHEHMVITDRIENIDHLGFFIYRLCHDKETYKL

Experiments:
[1] = molecular target: the molecule itself; experiment: native gel or EMSA; N3 EGF1–5 proteins at 30 µM in 1 × PBS, 37°C for 80 h with and without Bri2 BRICHOS at 1:1 and 1:2 molar; native loading buffer free of DTT and SDS; 6% native PAGE
[2] = molecular target: B2; experiment: cell-based or functional assay

Binder: B1
- binding result [1]: binds

Binder: B2
- binding result [1]: binds

Binder: B3
- final aggregation intensity of R133C by turbidity at 360 nm, 37°C, 10 µM, BRICHOS at 1:1 molar ratio [2]: ≤ 50 % reduction

— article PMC8864064, “Molecular Chaperone BRICHOS Inhibits CADASIL-Mutated NOTCH3 Aggregation In Vitro” (Frontiers in Molecular Biosciences, 2022)
